Consider 5 molecules from patent publication US8337851B2, “Methods of monitoring the efficacy of anti-CD40 antibodies in treating a subject for a CD40-expressing cancer” (Novartis AG, priority 2005, dated 2012).

Entries after “also recorded” stand apart in the source; their conditions may differ.

The test system of test [1] is primary cancer cells from NHL patients. Description: ADCC against primary cancer cells. Format: cell-based, human. To be noted: in vitro. The source says: (§1) 4, 2003, Nov. 26, 2003, and Apr. 27, 2004, and assigned U.S. Patent Application Nos. 60/517,337, 60/525,579, and 60/565,710, respectively, and International Patent Application No. PCT/US2004/037152, also entitled “Antagonist, Anti-CD40 Monoclonal Antibodies and Methods for Their Use,” filed Nov. 4, 2004; the contents of each of which are herein incorporated by reference in their entirety.

The test system of test [2] is B cells from normal human subjects. Nature of the test: In vitro CD40 ligand-mediated proliferation of normal B cells. The format is cell-based.
Source text: (§2) 2, 2000, and PCT International Application No. PCT/US01/30857, also titled “Human Anti-CD40 Antibodies,” filed Oct. 2, 2001, both of which are herein incorporated by reference in their entirety.
as §1

Test [3] has as its system human lymphocytes from normal subjects. Nature of the test: Proliferation of human lymphocytes. Format: cell-based. To be noted: antibody alone.
Another test deals with soluble CD40 (Homo sapiens, UniProt P25942). Description: ELISA-type binding to soluble CD40. To be noted: ELISA-type assays.
soluble CD40, sequence (P25942 21-193 limits assumed): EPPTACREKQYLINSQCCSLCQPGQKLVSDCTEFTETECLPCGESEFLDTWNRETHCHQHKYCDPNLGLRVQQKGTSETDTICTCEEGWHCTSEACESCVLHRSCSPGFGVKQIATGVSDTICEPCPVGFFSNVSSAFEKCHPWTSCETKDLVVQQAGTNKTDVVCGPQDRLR
Source text: as §2
On the technique in general: ELISA stands for enzyme-linked immunosorbent assay.

For test [4], the system named is cancer cells from NHL and CLL patients. Nature of the test: In vitro CD40 ligand-mediated proliferation of patient cancer cells. The format is cell-based, human.
Source text: as §1

Test [5] concerns CD40-expressing target cells. Nature of the test: ADCC activity of anti-CD40 antibodies (Table 1). Format: cell-based.
A further test concerns the target cell-surface CD40 (Homo sapiens, UniProt P25942). Nature of the test: Flow cytometric CD40-ligand binding blockade and displacement. To be noted: flow cytometric assays / FACS.
Source text: as §2, §1

Test [6] has as its system B-CLL cells. Nature of the test: p38 MAPK signaling and survival in B-CLL cells, 24-hour experiment. The format is cell-based, human. The method, then: In the 24-hour experiment, approximately 0.8×10^6 B-CLL cells per well were placed in full serum (10% FBS)-containing media for 24 hours. […] Western blot analysis with antibodies against specific proteins shown was conducted, and equal loading was evaluated by probing with antibodies against β-actin.

The subject of test [7] is B-CLL cells. Description: p38 MAPK signaling in B-CLL cells, four-hour experiment. The format is cell-based, human. To be noted: 4 hours; SB203580 30 and 60 μM, CHIR-12.12 10 μg/mL. The method, then:
In the four-hour experiment, approximately 0.8×10^6 B-CLL cells per well were serum starved in 1% FBS-containing media for 4 hours. […] Cell lysates were collected before and 20 minutes after CD40L stimulation. Western blot analysis with antibodies against specific proteins shown were conducted, and equal loading was evaluated by probing with antibodies to total p38 (t-p38) and β-actin.

The test system of the next test is KMS-12-BM tumor. Nature of the test: Human KMS-12-BM subcutaneous xenograft model. The format is in vivo, SCID mice. The conditions noted are these: 1 mg/kg i.v. twice a week for two weeks (maximal tolerated dose); P>0.05. The procedure: Female SCID mice were treated with 3Gy irradiation one day prior to implantation of tumor cells. On the day of implantation, cells were prepared at a concentration of 5×10^7 cells/ml in 50% matrigel. Cells were implanted subcutaneously over the right flank at 5×10^6 cells/100 μl/mouse. […] Antibodies were administered intraperitoneally once a week for 4 weeks. Bortezomib was administered intravenously twice a week for two weeks.
On the technique in general: In xenograft studies the graft and the host belong to different species.

Test [8] concerns IM-9 tumor cells (a human multiple myeloma cell line). Nature of the test: IM-9 multiple myeloma subcutaneous xenograft model. The format is in vivo, SCID mice. The method, then:
SCID mice were inoculated subcutaneously with IM-9 tumor cells (a human multiple myeloma cell line expressing both CD40 and CD20) in 50% […]™ at 5×10^6 cells per mouse. […] Alternatively, bortezomib dosing at 1 mg/kg intravenously occurred on days 5, 8, 12, and 15 after tumor implantation. […] Antibody dosing occurred on days 8, 14, and 21 post tumor implantation, while bortezomib dosing occurred on days 8, 11, 14 and 18 post tumor implantation. […] Data were analyzed using the log-rank test.

The test system of test [9] is B-CLL cells from patients. Description: PI3K and MEK inhibitors on CD40L signaling and survival in B-CLL cells. Format: cell-based, human. The method, then:
A PI3K inhibitor (LY294002; Sigma, St. Louis, Mo.) and MEK inhibitor (PD98595; Cell Signaling Technology, Beverly, Mass.) were used to dissect the pathways required for CLL cell survival. In these experiments, 1.0×10^6 B-CLL cells from patients were serum starved in 1% FBS containing media for 4 hours. Serum-starved cells were then pretreated with LY294002 (PI3K inhibitor, 30 μM) or PD98595 (MEK inhibitor, 10 μM). Cell lysates were then collected before and 20 minutes after CD40L stimulation. Western blot analysis with antibodies to p-IKK α/β, p-ERK, p-Akt was conducted, and equal loading was evaluated by probing antibodies to total ERK and β-actin.

Another test deals with normal B cells. Description: CD40L-induced cytokine secretion from normal B cells (Meso Scale Discovery). The format is cell-based, human. The conditions noted are these: 24 hours. The method, then:
(§3) Cells (1×10^5 cells per well) were cultured in a 96-well plate in the presence or absence of CD40L (CD40 transfected, formaldehyde fixed CHO cells, 2×10^5 per well). […] Production of hIL-6, hIL-8, hIL-10, hTNF-α, hGM-CSF, hIL-1b, hIL-12p70, MCP-1, and MIP-1β was measured by Meso Scale Discovery® multi-array system (Meso Scale Discovery, Gaithersburg, Md.).

Test [10] concerns B-CLL cells. Nature of the test: cPARP flow cytometry of CLL patient PBMCs. Format: cell-based, human. To be noted: 24 hours. The procedure: [formula] cPARP analysis by flow cytometry was performed after 24 hours in culture. Cells were treated with FACSLysis buffer (BD Biosciences) and frozen. After fixation in 1% formaldehyde for 45 min, cells were washed and incubated with PE-conjugated mouse anti-human CD19 for 30 min at room temperature (RT). Cells were then permeabilized using 70% ethanol on ice for 30 min and stained for 30 min at RT with rabbit anti-human cPARP antibody or isotype control rabbit IgG along with PerCP-Cy5.5-labeled mouse anti-human CD5. This was followed by incubation with goat anti-rabbit IgG-AlexaFluor 647 for 30 min at RT before fixing with 1% formaldehyde and analyzing by flow cytometry. Percent blockade was calculated as follows: […]
A general note: A flow cytometer gives signals particle by particle.

The test system of test [11] is B-CLL cells. Nature of the test: CellTiter-Glo viability of CLL patient PBMCs. The conditions noted are these: 72 hours, 2 μg/ml rhsCD40L + 4 μg/ml enhancer. Format: cell-based, human. The method, then:
Cell viability was determined after 72 hours using the CellTiter-Glo® Luminescent Cell Viability Kit (Promega, Madison, Wis.), which measures cellular ATP, and expressed as Relative Luminescence Units (RLU). Percent blockade was calculated as follows: […]

A further test has as its system CLL cells. Nature of the test: CD40L-induced cytokine secretion by CLL cells (Meso Scale Discovery). The format is cell-based, human. The conditions noted are these: CLL #1; 24 hours. The method, then: as §3

cell-surface CD40, sequence (P25942 21-277): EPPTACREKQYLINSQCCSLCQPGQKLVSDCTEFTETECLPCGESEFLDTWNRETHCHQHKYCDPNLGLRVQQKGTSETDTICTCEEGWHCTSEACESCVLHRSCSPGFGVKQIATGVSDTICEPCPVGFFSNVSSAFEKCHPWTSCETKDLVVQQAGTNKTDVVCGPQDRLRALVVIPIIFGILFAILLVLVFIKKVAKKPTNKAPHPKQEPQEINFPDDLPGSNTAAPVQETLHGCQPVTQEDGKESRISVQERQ

Regarding “CHIR-5.9: fully human anti-CD40 monoclonal antibody of the IgG1 isotype from hybridoma cell line 131.2F8.5.9 (ATCC PTA-5542)”, in [1], the “killing of primary cancer cells by ADCC” value was “kill primary cancer cells from NHL patients by ADCC”. In test [2], the “effect on proliferation of normal B cells” value is “act as antagonist anti-CD40 antibodies; also recorded: inhibit in vitro CD40 ligand-mediated proliferation of normal B cells”. Also, in test [3], the “induction of lymphocyte proliferation (agonist activity)” value is on record as “do not induce strong proliferation of human lymphocytes from normal subjects”. In the test with soluble CD40, the “binding to soluble CD40” value is recorded as “bind soluble CD40”. For the same molecule, the “effect on CD40 ligand-mediated proliferation of cancer cells” value in test [4] was “inhibiting in vitro CD40 ligand-mediated proliferation of cancer cells from NHL and CLL patients”. In test [5], the “killing of CD40-expressing target cells by ADCC” value is given as “able to kill CD40-expressing target cells”. In addition, in the test with cell-surface CD40, the “displacement of pre-bound CD40-ligand” value is “displace the pre-bound CD40-ligand; also recorded: can compete off CD40-ligand pre-bound to cell surface CD40” and the “prevention of CD40-ligand binding to cell-surface CD40” value is recorded as “prevent the binding of CD40-ligand to cell-surface CD40; also recorded: can prevent CD40-ligand binding”.
As to `C[S+]([O-])c1ccc(-c2nc(-c3ccncc3)c(-c3ccc(F)cc3)[nH]2)cc1` (stereo not shown) [SB203580, reference compound], in the test with B-CLL cells [6] (CD40L), the “cleaved Caspase-3” value was “induced to a lesser extent” and the p38 phosphorylation result is “similarly blocked”. Also, in the test on B-CLL cells [6] (SB203580 30 and 60 μM, CHIR-12.12 10 μg/mL, CD40L), the cleaved-PARP entry is reported as “significantly induced”. Moreover, the Bcl-xl expression entry with B-CLL cells [6] (especially 60 μM SB203580 and 10 μg/ml CHIR-12.12) is on record as “blocked”. The “p38 activation by CD40L” value in the test on B-CLL cells [7] is “slightly inhibited”.
On to `CC(C)C[C@H](NC(=O)[C@H](Cc1ccccc1)NC(=O)c1cnccn1)B(O)O` [bortezomib, reference compound], for which, in the test with KMS-12-BM tumor, the tumor volume reduction is reported as 22%. The tumor growth entry in [8] (first study, CHIR-12.12 1 and 10 mg/kg i.p. days 5, 12, 18, bortezomib 1 mg/kg i.v. days 5, 8, 12, 15) was “inhibited tumor growth at 15, 18, and 21 days post tumor implantation”; in [8] (second study, bortezomib 1 mg/kg i.v. days 8, 11, 14, 18), “did not display statistically significant growth inhibition”.
For `COc1cccc(-c2cc(=O)c3ccccc3o2)c1N` [PD98595], the IKK/NFkB activation entry in test [9] (LY294002 30 μM or PD98595 10 μM) is “no change of IKK/NFkB activation”. The “survival mediated by CD40L (cleaved PARP, caspase-3, Bcl-xl)” value in [9] (LY294002 or PD98595, FIG. 9) was “no change of survival mediated by CD40L”. For the same molecule, in test [9] (PD98595 10 μM, 20 minutes after CD40L), the “activation of ERK induced by CD40L” value was “inhibited activation of ERK”.

B1: CD40L: CD40 ligand used as stimulus: transfected formaldehyde fixed CHO cells (Example 4) or recombinant human soluble CD40L (Example 7) (protein)
chain: MIETYNQTSPRSAATGLPISMKIFMYLLTVFLITQMIGSALFAVYLHRRLDKIEDERNLHEDFVFMKTIQRCNTGERSLSLLNCEEIKSQFEGFVKDIMLNKEETKKENSFEMQKGDQNPQIAAHVISEASSKTTSVLQWAEKGYYTMSNNLVTLENGKQLTVKRQGLYYIYAQVTFCSNREASSQAPFIASLCLKSPGRFERILLRAANTHSSAKPCGQQSIHLGGVFELQPGASVFVNVTDPSQVSHGTGFTSFGLLKL
Regarding B1, in the test with normal B cells (Donor 1), the MCP-1 secretion is given as 5.5 folds of induction over background, the MIP-1β secretion is 2.2 folds of induction over background, the hGM-CSF secretion entry is “no induction” and the hIL-1b secretion entry is recorded as “no induction”. Further, in the test on normal B cells (Donor 1), the hIL-6 secretion was 5.7 folds of induction over background, the hIL-8 secretion is listed as 7.7 folds of induction over background, the hIL-10 secretion is recorded as 3.6 folds of induction over background and the hIL-12p70 secretion entry was “no induction”. The hTNF-α secretion with normal B cells (Donor 1) is listed as 3.7 folds of induction over background. For the same molecule, in the test on normal B cells (Donor 2), the MIP-1β secretion is given as 2.6 folds of induction over background, the hIL-1b secretion result is listed as “no induction”, the hIL-6 secretion is 3.8 folds of induction over background and the hIL-8 secretion is given as 14.7 folds of induction over background. Besides, the hTNF-α secretion with normal B cells (Donor 2) is 4.8 folds of induction over background. Moreover, in the test on normal B cells (Donor 3), the MCP-1 secretion is on record as 1.7 folds of induction over background, the MIP-1β secretion was 17.8 folds of induction over background, the hGM-CSF secretion entry is on record as “no induction” and the hIL-1b secretion result was “no induction”. Also, in the test on normal B cells (Donor 3), the hIL-6 secretion is listed as 20.5 folds of induction over background, the hIL-8 secretion was 49.3 folds of induction over background, the hIL-10 secretion is given as 3.6 folds of induction over background and the hIL-12p70 secretion result is reported as “no induction”. Further, the hTNF-α secretion in the test with normal B cells (Donor 3) is listed as 22.8 folds of induction over background. Besides, the “samples in which CD40L promoted survival of B-CLL cells” value in the test with B-CLL cells [10] is listed as 6/7. Also, the “samples in which CD40L promoted survival of B-CLL cells” value in the test on B-CLL cells [11] is 7/7. For the same molecule, in the test on CLL cells, the MCP-1 secretion is recorded as 5.5 folds of induction over background, the MIP-1β secretion result was “no induction”, the hGM-CSF secretion is listed as 7.6 folds of induction over background and the hIL-1b secretion entry is “no induction”. Moreover, in the test on CLL cells, the hIL-6 secretion result is given as “no induction”, the hIL-8 secretion was 4.0 folds of induction over background, the hIL-10 secretion is reported as 9.2 folds of induction over background and the hTNF-α secretion is on record as 3.3 folds of induction over background.
